Tested on: K4 kissing-loop RNA reporter
Test: apparent KD of K4 kissing-loop reporter; higher = weaker reporter binding
Conditions: Eterna round: R107
Protocol: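 RNA-MaP round R107: designed RNA switches with theophylline, tryptophan, arginine or FMN aptamers are transcribed on-chip within common flanks. They are titrated with a labelled K4 kissing-loop RNA reporter in RNA-MaP buffer (100 mM Tris pH 7.5, 80 mM KCl, 4 mM MgCl2), without ligand or with the indicated ligand. Median apparent KD per design.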

[1] = input ligand: theophylline 20 uM
[2] = input ligand: tryptophan 2.4 mM
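Also: bound reporter read as fluorescence of individual clusters on recovered sequencing chips by microscopy, with normalized cluster intensities fitted with a binding model.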

Sequence | apparent KD of K4 kissing-loop reporter (input ligand: FMN 200 uM) | apparent KD of K4 kissing-loop reporter (input ligand: arginine 13.2 mM) | apparent KD of K4 kissing-loop reporter (input ligand: none) | apparent KD of K4 kissing-loop reporter [1] | apparent KD of K4 kissing-loop reporter [2]
UGGACCUGACUCGAUAAGAGUCAAUGAGAUACCAGUGACGAAAGUCACCCUUGGCAGCUCCUGCCAGUGAUGUUGGUAAGGUCCU [#SwitchBubble 4 #StaticStem] | 416 nM | 252 nM | 437 nM | 575 nM | 299 nM
AAAAUAAGCCAGUGAUGUUGGGAUCCAGAUACCAGCGACGAAAGUCGCCCUUGGCAGCUGUGGACGUACAAAAUAAGUACGUCCU | 924 nM | 706 nM | 1040 nM | 927 nM | 992 nM
UAACUGCAGUGAUGUUGCAGAUGUCCUGACUAGGAUAUCAGGAAACUGAGAAGGAGUCCCUUCUACUGCAACAAGAAGGAGGACA [[K1]-[K2]-[F1]'-[F1]-[F2]-[F2]'-[K]'-[F]''_Design2] | 396 nM | 347 nM | 436 nM | 391 nM | 408 nM
CAGGCGACUAUCGAUACCAGAUGAUAUCGACUACUUGAGUGAUGUUCGAUUAAAGGCAUUAUCCCUUGGCAGCGACUGGACACAU [theeternabot_sameState_KL_Theo_B_24] | 706 nM | 505 nM | 667 nM | 659 nM | 414 nM
AGUGAUGUAUGGCGGUUUGUCACUUAUAAUCAGGAUAUAUAAACAAAUAGAAGGGAUGGCGGAGUGAUGUUCCGCCGGCCGCCAU [FMN A Exl V5] | 170 nM | 136 nM | 167 nM | 172 nM | 149 nM
UUAUAUACGAGUGAUGUUCGUUAUUUAUCAGAGGAUAUGCUUAAAUGCAGAAGGCUGUAUUUCUAUUUGAUAUUAAAUUUUAUAA [JR_Nu3_ExcFMNA_Sub026] | 90.8 nM | 89.8 nM | 66.8 nM | 86.1 nM | 57.3 nM
GGCACUUUUGGUAGAAACCAUCUACCUCUAUAGGAUAUGCCGAAAGGCAGAAGGAUAGACCUACAGAGUGAUGUUCUGCGUGCCU | 692 nM | 406 nM | 719 nM | 460 nM | 503 nM
AGACUACCACACUGUCAAUAGACAGUGAGCUAGGAUAUGCUGAUAAGCAGAAGGAGUGAUGUUCCUAGGUAGUCAAUAAAAUAAU [FmnAX 13 G29] | 447 nM | 462 nM | 435 nM | 645 nM | 493 nM
AAAUUUAAUAUAUUUAAUUAAUUAAGUGAUACCAGACAUUAAUAAGUCCCUUGGCAGCACAAUGCAGUGAUGUUGCUUAUAAUAA [JR_SSTheophyA_Sub009] | 129 nM | 120 nM | 76.6 nM | 169 nM | 76.3 nM
GUUCUGAUGGAAACAUCGGAACAUACUGAUACCAGUAUCGAUAGAUACCCUUGGCAGCAGAAUCAGUAAUAACGAGUGAUGUUCG [Ex Theophylline A K4 2] | 275 nM | 247 nM | 293 nM | 273 nM | 257 nM
AGCUCAGAGUGACUCGAUAAGAGUCACAAACGAGGACCGGUACGGCCGCCACUCGAAAUAAAGAGAGUGAUGUUCUCGCUGAGCA [FiskerMod 9 - Jieux - Same State Tryptophan A] | 200 nM | 211 nM | 223 nM | 239 nM | 795 nM
UGUGUUUACCUGACUCAGUGAUGUUGAGAAGGAGCGUGAGAAGGCACAGGUAGGUCGCUCAACCUAAAUUCAGGUGAGCACUAAA | 134 nM | 188 nM | 173 nM | 193 nM | 142 nM
AAUUUAUAUUUAUUCUUUAAAUGUUCAGAAGGAGCGUGAAUUAUCACAGGUAGGUCGCUGAGCUAGUGAUGUUGGCUAUAUACUA [whbob_Ex_Arginine_A_2t124] | 167 nM | 219 nM | 202 nM | 217 nM | 138 nM
UUAGGAGUGGAAGGAUAUCCUGGUGUGGGUGGUGUUAGUGAUGUUGGUGGUGCAGUGAUGUUGCGCGGAGAAGGUCCGGUGUUGA [BDazzled - #4 - Exc. FMN B] | 471 nM | 384 nM | 434 nM | 554 nM | 358 nM
AGUGAGUGAUGUUCACUGUACGUGUCUGAAGGAGCGACAUCGAUGUCAGGUAGGUCGCAGACAUGUCAUCUAUGGUGCGUGACCA [Arg A SS t10] | 124 nM | 116 nM | 129 nM | 163 nM | 118 nM
UGGAGUUGACGAAAAGUCAACUCCUGAGAUACCAGUGACGAAAGUCACCCUUGGCAGCUCACUGGCAGUGAUGUUGCUAUAUAAA [KL-SSTheo-A3] | 85.5 nM | 68.9 nM | 95.3 nM | 211 nM | 101 nM
UGACUGGAUUGAAGGAGCGCUAAACUCCUAGUGAUGUUAGGGACACGAGACAAAGUCUCGAGGCAGGUAGGUCGCAAUCUAGUCU [FiskerMod 6 - Jieux - Same State - Arginine B] | 309 nM | 225 nM | 247 nM | 296 nM | 249 nM
UAUCGAGUGAUGUUCGAUGUAGUGCAUUCAGAGGAUAUAGGAUGGGCUAGAAGGCUGAAAAGUGCUUCGAGUGAUGUUCGAAGAU [Exclusion FMN A GF 5] | 63.8 nM | 49.2 nM | 80.3 nM | 57.6 nM | 65.3 nM
AAGCAGUCUCUCGAAGCCAUCGAAGAUGGGCGAGGACCGGUACGGCCGCCACUCGGAGUGAUGUUCCGAAGACUGCAAAAUAAAA [MatMod 10 - Jieux - Exclusion - Tryptophan A] | 281 nM | 223 nM | 396 nM | 243 nM | 308 nM
UCCUAGGCUCGAAAGAGCCUAGGAUGGACUCAGGAUAUCCGGAAACGGAGAAGGGAGUCACUAGUGAUGUUAGGGACUCCCUAAC | 302 nM | 97.7 nM | 110 nM | 123 nM | 109 nM
GGAGGAGAAUAUGAUACCAGCAGAGAGAGAGAGGAAGUAUAGUGAUGUUAUAUGUGAGAAUGCCCUUGGCAGCAUAACAAGAAGG [whbob_SS_Theo_B_sa88] | 121 nM | 225 nM | 194 nM | 116 nM | 122 nM
CAUAGGAAACUAUGUUUCUCUCUUACUGAAGGAGCGCGUGAAAACGCAGGUAGGUCGCAGAAUUUGAGAGUGAUGUUCUCAAUAA [Ex Arginine A K4 13] | 114 nM | 149 nM | 151 nM | 167 nM | 116 nM

Sequence | apparent KD of K4 kissing-loop reporter (input ligand: FMN 200 uM) | apparent KD of K4 kissing-loop reporter (input ligand: arginine 13.2 mM) | apparent KD of K4 kissing-loop reporter (input ligand: none) | apparent KD of K4 kissing-loop reporter [1] | apparent KD of K4 kissing-loop reporter [2]
UGAUAGGACAGAAGGAGCGGGAGUGAUGUUCCCAAUAGGAGGUCUAGCAAAGCUGGACCCUCCCAGGUAGGUCGCUGUCCUAUCU [ArgBX 3 #SwitchBubble #StaticStem] | 102 nM | 115 nM | 96.1 nM | 115 nM | 108 nM
ACGUCCGGGUUAAUCGUGGGCGUGGUGGAUACCAGUUCUUUAAUGAACCCUUGGCAGCCACAUGAGUGAUGUUCAUGUGCGAUGA [KL-XTheo-A10 #analogue] | 100 nM | 102 nM | 96.2 nM | 98.2 nM | 95.4 nM
CGAGCGCGUGCGGCCGCCACUACUAUAAGUCGUCCAAGUUAGUGAUGUUGACUGAACGUCGGAAAUAGGACCGGGCAUAGUUUUA [theeternabot_sameState_KL_Trp_B_40] | 351 nM | 410 nM | 420 nM | 415 nM | 300 nM
UGGACCGCCUGAGGAUAUAGGGACGAGUGAUGUUCGUGGACCAGAGCCAGUGAUGUUGGGUUAUUUCUAGAAGGCGGGCGAACUU [Exclusion FMN B GF11] | 120 nM | 167 nM | 188 nM | 154 nM | 146 nM
AAAUAGAUCAGUCAUCCAGUGAUGUUGGAAGGAGCGUGCGAAAGCACAGGUAGGUCGCCAGAAUAAAAGUGGCUGAUCAAAAUAA | 273 nM | 318 nM | 322 nM | 467 nM | 178 nM
AGUAGUUGGACGGCCGCCACUGGAACAGCUUUGCCAAAGGCAGAGCACUAGAGUGAUGUUCUAGCUAGGACCGGGUCCAACUACA [whbob_SS_Tryp_B_t16] | 338 nM | 89.7 nM | 440 nM | 249 nM | 882 nM
AGAGUUAUGAGAGGAUAUGCGGCUAGUACUCAAAGAGUACUAGCAGCGGAGUGAUGUUCUGCGAAAGCAGAAGGUUCAUAACUCA [#08 K4 FMN B Same State] | 214 nM | 622 nM | 1710 nM | 1110 nM | 1050 nM
UAGUCCUAGUGAUCCUUAUCAAGUGGUGGGCGAGGACCGGUACGGCCGCCACUCGACUAUGCAGUGAUGUUGUAAUCCGGACAAU [Exclusion - Tryptophan A (Freestyle 12)] | 669 nM | 488 nM | 633 nM | 742 nM | 541 nM
UAGGCCGCAUACAUUAGAUAAGGUACCGAUACCAGCCUCGCACCAGGCCCUUGGCAGCGGCAUCAAAUGGGUAGUGAUGUUACCU [theeternabot_exclusion_KL_Theo_A_20] | 139 nM | 135 nM | 159 nM | 144 nM | 136 nM
UUUAUAUAGUCGGCCGCCACUGGAUUAAUAUUUGUAUAAUCUAGAUCAAAGUGAUGUUUUGAGUCCAGGACCGGGACAUUUGUUA [JR_ExcTryptoB_Sub006] | 539 nM | 391 nM | 486 nM | 525 nM | 427 nM
CGCGCGGGUUGAGAGGUUCGCGCGAAUGAUACCAGUAUAUAAGAAUACCCUUGGCAGCAUAAGAAAGAUAUAGUGAUGUUGUAUA [SSTheophA.G] | 408 nM | 211 nM | 262 nM | 355 nM | 262 nM
AGACGUUUGGGAAGGAGCGGAAUGUAAUACGGAACGCGUGGAGGUGCAGUGAUGUUGCAGAUCCAGGUAGGUCGCCCAAGGGACG [Esenraerve] | 94.1 nM | 122 nM | 99.1 nM | 137 nM | 91.1 nM
CAUGUGUCUAUUACGAUGGAUACAUAUACUGAGGAUAUCACAUUUAUGAGAAGGCAGUAAACUGCGAGUGAUGUUCGCAGUACGU [FMN A SS t8] | 159 nM | 204 nM | 214 nM | 316 nM | 248 nM
GGGAGUAGUGCGGCCGCCACUGUGAGGGAAGAAGAAUAUAGUGAUGUUAUAUAGGAAGGGAAGAAUAGGACCGGGCAUUAGAUUU [SSTRyptB.aB] | 225 nM | 208 nM | 245 nM | 230 nM | 198 nM
AGAGUACGAAAGUACUCCUCUACACACUGCCGAGGACCGGUACGGCCGCCACUCGAGUUGAGUGAUGUUCGACAGUGUGUAGAGA [Omei KL Tryp A SS C v2] | 114 nM | 56.2 nM | 79 nM | 132 nM | 128 nM
AAGCCAGAGAUUGCUGCGGGUUCCAGAGAUACCAGCCGUAUUGAAGGCCCUUGGCAGCUCGAGUGAUGUUCGAGCCGUCUCUAGC [Bisore] | 126 nM | 101 nM | 124 nM | 123 nM | 110 nM
GCCAGUGCGCGAAGGAGCGCCGUGACAGGUUACUGCCUUGGGCAGUGAUGUUGCUCAAUCUGGCAGGUAGGUCGCGUGCACUGGC | 212 nM | 184 nM | 166 nM | 204 nM | 197 nM
ACAGUCGGCUGUGAUACCAGUCGUAUUACAACAUGUUGCAGUGAUGUUGCGAGAUAGGAUGACCCUUGGCAGCACUCAGUACGAC [Same State Theophylline B GF10] | 208 nM | 135 nM | 222 nM | 252 nM | 209 nM
UGAUACCAGACGGCCGCCACUCCCGUAAGUCAAAGACUUACGAAGAGGGUUUUUCAGUGAUGUUGGAGGACCGGGUCUGGUAUCU [FiskerMod 17 - Jieux - Exclusion - Tryptophan B] | 516 nM | 420 nM | 545 nM | 506 nM | 824 nM
AGUACAAUGGCGGCCGCCACUCAAUGGGCGACCGAAAGGUCGCAUCACUCAGUGAUGUUGAGUGAGAGGACCGGGCCUUUGUACA [Omei KL Tryp B SS B v8] | 733 nM | 497 nM | 611 nM | 595 nM | 270 nM
AUUUGUUUAUGUGAUACCAGACUUUGCAGUGAUGUUGCAUUUAUUUUAGAAGAAUAGUUUGUCCCUUGGCAGCACUAUGUAUUUA [JR_SSTheophyB_Sub006] | 44.9 nM | 98.2 nM | 49.3 nM | 80.7 nM | 41.5 nM
